Test results as given in the RNAGym collection of RNA variant scans (doi:10.1073/pnas.2313332121).

B1: TPR t1 (parent)
chain: GACCAAUCUGCCCUCAGAGCUCGAGAACAUCUUCGGAUGCAGAGGAGGCAGGCUUCGGUGGCGCGAUAGCGCCAACGUCCUCAACCUCCAAUGCAUCCCACCACAUGAUGAUGCCUGAAGAGCCUUGGUUUUUUG

Variants of: B1
Assay: polymerase ribozyme fitness, log enrichment relative to wild type (log ratio); higher = more active; in vitro selection for triplet polymerase activity
Procedure, shortened: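 Input and output libraries were sequenced on Illumina after a single in vitro selection round, run in triplicate on PCR-built, transcribed mutant libraries of each subunit of a heterodimeric triplet polymerase ribozyme. Selection annealed libraries to a biotinylated primer, the partner subunit and triplets, incubated them frozen at −7 °C, then gel-excised extended constructs for streptavidin-bead capture and RT-PCR. Genotypes with ≥10 input reads and ≥1 read per output were kept. Fitness is the logarithm, taken in base 2, of genotype enrichment divided by wild-type enrichment, using inverse-variance-weighted replicate averages.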

| Variant | polymerase ribozyme fitness (log ratio) |
| --- | --- |
| C62A A75G | -1.22 |
| G61U U78C | -0.574 |
| C62A U87A A90U A111C | -5.52 |
| C62A G120U G122C | -1.92 |
| C62G G113A C114G A121U | -4.27 |
| G61U U106C G135U | -1.67 |
| C62A U78C | -1.1 |
| C62A U106G A121G | -0.77 |
| C62A U81G G120A | -4.65 |
| C62G C64U | -3.51 |
| C62G U116A | -4.13 |
| C62A C85U | -0.762 |
| C62A C85A | -2.47 |
| C62U A74U U78C G120A | -0.246 |
| C62A C115A | -1.58 |
| C62U A121U | 1.08 |
| C62U A121C | 1.11 |
| G61U U78G C94A U129A | -2.72 |
| C62G G117A | -2.78 |
| C62A G122U | 0.143 |
| C62A G122A | -1.85 |

| Variant | polymerase ribozyme fitness (log ratio) |
| --- | --- |
| C62U A121G U125C | -0.0117 |
| C62G G63A | -3.83 |
| C62G G63U | -7.04 |
| C62G C89A | -4.23 |
| C62A U96G | -1.8 |
| G61U U78C G117U | -1.99 |
| G61U U92G | -2.97 |
| C62U C73U U81G A84C G113A | -3.57 |
| G61U U78C C88U U130G | -0.822 |
| C62U C82U C124A | 1.29 |
| C62A G110A U126G | -3.4 |
| C62G G120C | -0.544 |
| C62G G120A | -0.673 |
| C62U C79U | -0.282 |
| C62A U129G | -1.28 |
| C62A C88U | -2.23 |
| C62A C88A | -2.76 |
| C62U A119G | 0.565 |
| C62G C79U G110A | -2.71 |
| C62A A74U U81C | -5.14 |
| C62G U130A | -1.59 |

| Variant | polymerase ribozyme fitness (log ratio) |
| --- | --- |
| C62U A90C | -2.52 |
| C62A A84G G117A | -5.26 |
| C62G U78C U96C | -3.37 |
| C62G C104U | -1.52 |
| C62G C104A | -4.04 |
| C62A U133G | -2.87 |
| C62A C72U G117A U129A U130C | -2.9 |
| C62G G117A U131G | -4.48 |
| G61U U81C C101G | -2.09 |
| C62U A103G | -5.08 |
| C62U A103U | -4.85 |
| C62U A105U | -2.19 |
| C62G C86U | -1.34 |
| C62U C76U G120C | 0.583 |
| G61U U116C | 0.227 |
| C62G C86A C99U C101U A121G G122U | -5.18 |
| C62A C72G G120U U129G | -3.88 |
| G61U U106G | -0.849 |
| G61U U106A | 0.146 |
| C62G A95G | -1.49 |
| C62A G128C | -3.8 |

| Variant | polymerase ribozyme fitness (log ratio) |
| --- | --- |
| G61U U92G U126A U129G | -5.18 |
| G61U U112A U130A | 1.31 |
| C62A C79U C82A A111C | -0.967 |
| C62U A66G | -1.54 |
| C62U C85G U87C | -2.53 |
| G61U U96G U129G | -1.29 |
| C62U A74G C88A | -3.21 |
| C62G C102U | -4.74 |
| C62A G93C | -2.37 |
| C62A G93A | -2.07 |
| G61U U129G U133A | -2.01 |
| C62U C70G | -3.65 |
| G61U U87C C99U C115G | -4.63 |
| C62G A118G | -1.44 |
| C62G C102U G120U | -5.14 |
| C62A C114U | -2.2 |
| C62A C79U C89G U130A | -3.65 |
| C62G C82A | -1.67 |
| C62A C79A C115A G127A | -3.94 |
| G61U U126A | -1.86 |
| C62U A108C G117U C124A | -6.3 |
